Tested on: CHOP, BiP, and DR5 mRNA in HCT116 cells
Assay: qPCR of UPR target transcripts (CHOP, BiP, DR5)
Type: cell-based, Homo sapiens
Details: HCT116; for ERO1alpha (386+387) avg. fold induction relative to empty traffo / ERO1alpha (386+387) fold induction relative to empty traffo: melt curves for these primers showed two peaks; for GAPDH avg. fold induction relative to empty traffo / GAPDH fold induction relative to empty traffo: sheet Cq data 2
Procedure: Cells were grown in 6-well plates and harvested with 0.5 ml of TRIzol reagent (Life Technologies) per manufacturer’s protocol to extract RNA. For cDNA synthesis, 500 ng of total RNA was reverse transcribed with 2 μl of the SuperScript VILO master mix (Life Technologies # 11755050) in a total reaction volume of 10 μl following the manufacturer’s protocol for reaction temperature and duration. The reverse transcription product was diluted to 200 μl with 10 mM Tris-HCl pH 8.2 and used at 1:100 dilution for subsequent RT-PCR reactions.
PCR samples were prepared as described by manufacturer’s protocols from iQ SYBR Green Supermix (BioRad #17088800).
For each experiment, qRT-PCR reactions were set up in triplicate and run using a CFX96 Real Time System (Bio-Rad). Quantitation cycles were determined with CFX Manager 3.0 software (Bio-Rad) and then normalized to GAPDH as an internal control.

[1] = pRK CHOP 31 ng, mean of 3 replicates
[2] = pRK CHOP 62 ng, mean of 3 replicates
[3] = pRK CHOP 125 ng, mean of 3 replicates
[4] = pRK CHOP 250 ng, mean of 3 replicates
[5] = pRK CHOP 500 ng, mean of 3 replicates

B1: pRK CHOP (protein, UniProt P35638 1-169, looked up)
DNA damage-inducible …: MAAESLPFSFGTLSSWELEAWYEDLQEVLSSDENGGTYVSPPGNEEEESKIFTTLDPASLAWLTEEEPEPAEVTSTSQSPHSPDSSQSSLAQEEEEEDQGRTRKRKQSGHSPARAGKQRMKEKEQENERKVAQLAEENERLKQEIERLTREVEATRRALIDRMVNLHQA
modifications: expression plasmid
GAPDH (qPCR CHOP, Sheet1) (pRK CHOP 31 ng, replicate 1): 0.869 | CHOP (qPCR CHOP, Sheet1) (pRK CHOP 31 ng, replicate 2): 19.1521 | DR5 (qPCR CHOP, Sheet1) (pRK CHOP 31 ng, replicate 2): 0.9212 | GADD34 (qPCR CHOP, Sheet1) (pRK CHOP 31 ng, replicate 2): 1.088 | GAPDH (qPCR CHOP, Sheet1) (pRK CHOP 31 ng, replicate 2): 1.031 | CHOP (qPCR CHOP, Sheet1) (pRK CHOP 31 ng, replicate 3): 20.8362 | DR5 (qPCR CHOP, Sheet1) (pRK CHOP 31 ng, replicate 3): 2.023 | GADD34 (qPCR CHOP, Sheet1) (pRK CHOP 31 ng, replicate 3): 1.137 | GAPDH (qPCR CHOP, Sheet1) (pRK CHOP 31 ng, replicate 3): 1.033 | GADD34 (388+389) avg. fold induction relative to empty traffo [1]: 1 | GFP avg. fold induction relative to empty traffo [1]: 1.822 | ERO1alpha (386+387) avg. fold induction relative to empty traffo [1]: 1.061 | ERO1alpha (386+387) fold induction relative to empty traffo (pRK CHOP 31 ng, replicate 1): 0.958 | ERO1alpha (386+387) fold induction relative to empty traffo (pRK CHOP 31 ng, replicate 2): 1.088 | ERO1alpha (386+387) fold induction relative to empty traffo (pRK CHOP 31 ng, replicate 3): 1.137 | GADD34 (388+389) fold induction relative to empty traffo (pRK CHOP 31 ng, replicate 1): 1.125 | GFP fold induction relative to empty traffo (pRK CHOP 31 ng, replicate 1): 1.737 | GADD34 (388+389) fold induction relative to empty traffo (pRK CHOP 31 ng, replicate 2): 0.859 | GFP fold induction relative to empty traffo (pRK CHOP 31 ng, replicate 2): 1.908 | GADD34 (388+389) fold induction relative to empty traffo (pRK CHOP 31 ng, replicate 3): 1.016 | GFP fold induction relative to empty traffo (pRK CHOP 31 ng, replicate 3): 1.822 | GAPDH avg. fold induction relative to empty traffo [1]: 1.0065 | GAPDH fold induction relative to empty traffo (pRK CHOP 31 ng, replicate 1): 0.9404 | GAPDH fold induction relative to empty traffo (pRK CHOP 31 ng, replicate 2): 0.905 | GAPDH fold induction relative to empty traffo (pRK CHOP 31 ng, replicate 3): 1.174 | GFP avg. fold induction relative to empty traffo [2]: 1.726 | ERO1alpha (386+387) avg. fold induction relative to empty traffo [2]: 1.099 | ERO1alpha (386+387) fold induction relative to empty traffo (pRK CHOP 62 ng, replicate 1): 1.074 | ERO1alpha (386+387) fold induction relative to empty traffo (pRK CHOP 62 ng, replicate 2): 1.056 | ERO1alpha (386+387) fold induction relative to empty traffo (pRK CHOP 62 ng, replicate 3): 1.168 | GADD34 (388+389) fold induction relative to empty traffo (pRK CHOP 62 ng, replicate 1): 0.9151 | GFP fold induction relative to empty traffo (pRK CHOP 62 ng, replicate 1): 1.604 | GADD34 (388+389) fold induction relative to empty traffo (pRK CHOP 62 ng, replicate 2): 1.316 | GFP fold induction relative to empty traffo (pRK CHOP 62 ng, replicate 2): 1.747 | GADD34 (388+389) fold induction relative to empty traffo (pRK CHOP 62 ng, replicate 3): 1.12 | GFP fold induction relative to empty traffo (pRK CHOP 62 ng, replicate 3): 1.828 | GAPDH avg. fold induction relative to empty traffo [2]: 1.001 | GAPDH fold induction relative to empty traffo (pRK CHOP 62 ng, replicate 1): 0.9597 | GAPDH fold induction relative to empty traffo (pRK CHOP 62 ng, replicate 2): 0.9785 | GAPDH fold induction relative to empty traffo (pRK CHOP 62 ng, replicate 3): 1.064 | CHOP (qPCR CHOP, Sheet1) (pRK CHOP 125 ng, replicate 1): 230.561 | DR5 (qPCR CHOP, Sheet1) (pRK CHOP 125 ng, replicate 1): 1.242 | GADD34 (qPCR CHOP, Sheet1) (pRK CHOP 125 ng, replicate 1): 1.11 | GAPDH (qPCR CHOP, Sheet1) (pRK CHOP 125 ng, replicate 1): 0.8158 | CHOP (qPCR CHOP, Sheet1) (pRK CHOP 125 ng, replicate 2): 173.762 | DR5 (qPCR CHOP, Sheet1) (pRK CHOP 125 ng, replicate 2): 1.206 | GADD34 (qPCR CHOP, Sheet1) (pRK CHOP 125 ng, replicate 2): 1.18 | GAPDH (qPCR CHOP, Sheet1) (pRK CHOP 125 ng, replicate 2): 1.045 | CHOP (qPCR CHOP, Sheet1) (pRK CHOP 125 ng, replicate 3): 257.78 | DR5 (qPCR CHOP, Sheet1) (pRK CHOP 125 ng, replicate 3): 1.064 | GADD34 (qPCR CHOP, Sheet1) (pRK CHOP 125 ng, replicate 3): 1.241 | GAPDH (qPCR CHOP, Sheet1) (pRK CHOP 125 ng, replicate 3): 1.086 | GFP avg. fold induction relative to empty traffo [3]: 8.414 | ERO1alpha (386+387) avg. fold induction relative to empty traffo [3]: 1.177 | ERO1alpha (386+387) fold induction relative to empty traffo (pRK CHOP 125 ng, replicate 1): 1.11 | ERO1alpha (386+387) fold induction relative to empty traffo (pRK CHOP 125 ng, replicate 2): 1.18 | ERO1alpha (386+387) fold induction relative to empty traffo (pRK CHOP 125 ng, replicate 3): 1.241 | GADD34 (388+389) fold induction relative to empty traffo (pRK CHOP 125 ng, replicate 1): 1.561 | GFP fold induction relative to empty traffo (pRK CHOP 125 ng, replicate 1): 9.5448 | GADD34 (388+389) fold induction relative to empty traffo (pRK CHOP 125 ng, replicate 2): 1.2889 | GFP fold induction relative to empty traffo (pRK CHOP 125 ng, replicate 2): 8.015 | GADD34 (388+389) fold induction relative to empty traffo (pRK CHOP 125 ng, replicate 3): 1.475 | GFP fold induction relative to empty traffo (pRK CHOP 125 ng, replicate 3): 7.683 | GAPDH avg. fold induction relative to empty traffo [3]: 1.018 | GAPDH fold induction relative to empty traffo (pRK CHOP 125 ng, replicate 1): 0.7828 | GAPDH fold induction relative to empty traffo (pRK CHOP 125 ng, replicate 2): 1.018 | GAPDH fold induction relative to empty traffo (pRK CHOP 125 ng, replicate 3): 1.254 | GFP avg. fold induction relative to empty traffo [4]: 2.186 | ERO1alpha (386+387) avg. fold induction relative to empty traffo [4]: 1.157 | ERO1alpha (386+387) fold induction relative to empty traffo (pRK CHOP 250 ng, replicate 1): 1.13 | ERO1alpha (386+387) fold induction relative to empty traffo (pRK CHOP 250 ng, replicate 2): 1.17 | ERO1alpha (386+387) fold induction relative to empty traffo (pRK CHOP 250 ng, replicate 3): 1.17 | GADD34 (388+389) fold induction relative to empty traffo (pRK CHOP 250 ng, replicate 1): 1.613 | GFP fold induction relative to empty traffo (pRK CHOP 250 ng, replicate 1): 2.374 | GADD34 (388+389) fold induction relative to empty traffo (pRK CHOP 250 ng, replicate 2): 1.727 | GFP fold induction relative to empty traffo (pRK CHOP 250 ng, replicate 2): 2.176 | GADD34 (388+389) fold induction relative to empty traffo (pRK CHOP 250 ng, replicate 3): 1.397 | GFP fold induction relative to empty traffo (pRK CHOP 250 ng, replicate 3): 2.009 | GAPDH avg. fold induction relative to empty traffo [4]: 1.005 | GAPDH fold induction relative to empty traffo (pRK CHOP 250 ng, replicate 1): 0.8675 | GAPDH fold induction relative to empty traffo (pRK CHOP 250 ng, replicate 2): 1.034 | GAPDH fold induction relative to empty traffo (pRK CHOP 250 ng, replicate 3): 1.114 | CHOP (qPCR CHOP, Sheet1) (pRK CHOP 500 ng, replicate 1): 1691.32 | DR5 (qPCR CHOP, Sheet1) (pRK CHOP 500 ng, replicate 1): 1.92 | GADD34 (qPCR CHOP, Sheet1) (pRK CHOP 500 ng, replicate 1): 1.469 | GAPDH (qPCR CHOP, Sheet1) (pRK CHOP 500 ng, replicate 1): 0.9688 | CHOP (qPCR CHOP, Sheet1) (pRK CHOP 500 ng, replicate 2): 1384.67 | DR5 (qPCR CHOP, Sheet1) (pRK CHOP 500 ng, replicate 2): 1.724 | GADD34 (qPCR CHOP, Sheet1) (pRK CHOP 500 ng, replicate 2): 1.35 | GAPDH (qPCR CHOP, Sheet1) (pRK CHOP 500 ng, replicate 2): 0.7886 | CHOP (qPCR CHOP, Sheet1) (pRK CHOP 500 ng, replicate 3): 1378.19 | DR5 (qPCR CHOP, Sheet1) (pRK CHOP 500 ng, replicate 3): 1.731 | GADD34 (qPCR CHOP, Sheet1) (pRK CHOP 500 ng, replicate 3): 1.457 | GAPDH (qPCR CHOP, Sheet1) (pRK CHOP 500 ng, replicate 3): 1.212 | GFP avg. fold induction relative to empty traffo [5]: 12.178 | ERO1alpha (386+387) avg. fold induction relative to empty traffo [5]: 1.425 | ERO1alpha (386+387) fold induction relative to empty traffo (pRK CHOP 500 ng, replicate 1): 1.469 | ERO1alpha (386+387) fold induction relative to empty traffo (pRK CHOP 500 ng, replicate 2): 1.35 | ERO1alpha (386+387) fold induction relative to empty traffo (pRK CHOP 500 ng, replicate 3): 1.457 | GADD34 (388+389) fold induction relative to empty traffo (pRK CHOP 500 ng, replicate 1): 2.321 | GFP fold induction relative to empty traffo (pRK CHOP 500 ng, replicate 1): 5.396 | GADD34 (388+389) fold induction relative to empty traffo (pRK CHOP 500 ng, replicate 2): 2.041 | GADD34 (388+389) fold induction relative to empty traffo (pRK CHOP 500 ng, replicate 3): 2.147 | GFP fold induction relative to empty traffo (pRK CHOP 500 ng, replicate 3): 5.386 | GAPDH avg. fold induction relative to empty traffo [5]: 1.044 | GAPDH fold induction relative to empty traffo (pRK CHOP 500 ng, replicate 1): 0.6526 | GAPDH fold induction relative to empty traffo (pRK CHOP 500 ng, replicate 2): 1.156 | GAPDH fold induction relative to empty traffo (pRK CHOP 500 ng, replicate 3): 1.324

From PMC7041945, “Misfolded proteins bind and activate death receptor 5 to trigger apoptosis during unresolved endoplasmic reticulum stress” (eLife, 2020)
